What follows are substances tested against organic anion transporting polypeptide 1B1 (UniProt Q9Y6L6) (assay: cell-based or functional assay).
Chain of organic anion transporting polypeptide 1B1 (Q9Y6L6 whole entry): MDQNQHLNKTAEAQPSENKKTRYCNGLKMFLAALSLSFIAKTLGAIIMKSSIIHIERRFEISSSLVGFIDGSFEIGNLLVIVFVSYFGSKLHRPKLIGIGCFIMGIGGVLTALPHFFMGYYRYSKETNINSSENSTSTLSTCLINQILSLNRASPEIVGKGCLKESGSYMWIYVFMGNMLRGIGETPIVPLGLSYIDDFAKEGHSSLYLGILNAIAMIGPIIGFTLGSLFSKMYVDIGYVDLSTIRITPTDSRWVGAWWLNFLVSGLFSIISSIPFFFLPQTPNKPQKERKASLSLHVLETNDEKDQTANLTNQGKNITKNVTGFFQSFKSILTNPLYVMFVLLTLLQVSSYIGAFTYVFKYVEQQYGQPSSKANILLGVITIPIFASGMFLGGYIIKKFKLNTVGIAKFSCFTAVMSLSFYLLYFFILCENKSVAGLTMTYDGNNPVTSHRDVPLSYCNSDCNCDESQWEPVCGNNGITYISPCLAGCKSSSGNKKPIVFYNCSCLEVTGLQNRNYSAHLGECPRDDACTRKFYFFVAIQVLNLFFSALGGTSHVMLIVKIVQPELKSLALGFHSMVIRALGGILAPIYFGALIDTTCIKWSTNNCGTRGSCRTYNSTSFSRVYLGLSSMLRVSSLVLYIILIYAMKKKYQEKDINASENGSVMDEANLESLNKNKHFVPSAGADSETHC

Going from “1-dihydro-3-[D-Ala]-4[(2S,3S)-2-Amino-4-[4-(2-methoxy-ethyl)-piperazin-1-yl]-3-methyl-butanoyl]-cyclosporin (peptide)” to “3-[(R)-2-(methylamino)butanoic acid]-4-[(2S,3S)-4-methoxy-3-methyl-2-(methylamino)butanoyl]-cyclosporin (peptide)”, the OATP1B13 IC50 falls from 3.3 µM to 2.1 µM (1.6-fold).

“3-[(R)-3-methyl-2-(methylamino)butanoyl]-4-[(2S,3S)-4-methoxy-3-methyl-2-(methylamino)butanoyl]-cyclosporin (peptide)” and “3-[(R)-5-hydroxy-2-(methylamino)pentanoyl]-4-[(2S,3S)-3-methyl-2-(methylamino)-4-(methylsulfonyl)butanoyl]-cyclosporin (peptide)” are within 1.5-fold of each other in OATP1B13 IC50: 2 µM for the first, 2.7 µM for the second.

Compared with “3-[D-Ala]-4-[(2S,3R)-3,6-dimethyl-2-(methylamino)-6-((4-methylpiperazine-1-carbonyl)oxy)heptanoyl]-cyclosporin (peptide)”, “3-[D-Ala]-4-[(2S,3R)-3-methoxy-2-(methylamino)-4-morpholinobutanoyl]-cyclosporin (peptide)” is 5.2-fold lower in OATP1B13 IC50: 4.7 µM for the first, 0.9 µM for the second.

“3-[D-Ala]-4-[(2S,3R)-3-methyl-2-(methylamino)-4-(1,4-dioxa-8-azaspiro[4.5]decan-8-yl)butanoyl]-cyclosporin (peptide)” and “3-[D-Ala]-4-[(2S,3R)-3-methyl-2-(methylamino)-4-(1,4-oxazepan-4-yl)butanoyl]-cyclosporin (peptide)” are within 1.5-fold of each other in OATP1B13 IC50: 2.1 µM for the first, 1.7 µM for the second.

Compared with “3-[D-Ala]-4-[(2S,3R)-3-methyl-2-(methylamino)-4-(2-oxa-6-azaspiro[3.3]heptan-6-yl)butanoyl]-cyclosporin (peptide)”, “3-[D-Ala]-4-[(2S,3R)-3-methyl-2-(methylamino)-4-(2-oxa-6-azaspiro[3.4]octan-6-yl)butanoyl]-cyclosporin (peptide)” is 1.7-fold lower in OATP1B13 IC50: 3.4 µM for the first, 2 µM for the second.

Going from “3-[D-Ala]-4-[(2S,3R)-3-methyl-2-(methylamino)-4-(3-(trifluoromethyl)-5,6-dihydro-[1,2,4]triazolo[4,3-a]pyrazin-7(8H)-yl)butanoyl]-cyclosporin (peptide)” to “3-[D-Ala]-4-[(2S,3R)-3-methyl-2-(methylamino)-4-(3-oxopiperazin-1-yl)butanoyl]-cyclosporin (peptide)”, the OATP1B13 IC50 rises from 1 µM to 2.1 µM (2.1-fold).

Compared with “3-[D-Ala]-4-[(2S,3R)-3-methyl-2-(methylamino)-4-(4-(methylsulfonyl)piperidin-1-yl)butanoyl]-cyclosporin (peptide)”, “3-[D-Ala]-4-[(2S,3R)-3-methyl-2-(methylamino)-4-(4-methylpiperazin-1-yl)butanoyl]-cyclosporin (peptide)” is 4.4-fold higher in OATP1B13 IC50: 1.8 µM for the first, 7.9 µM for the second.

First: 3-[D-Ala]-4-[(2S,3R)-3-methyl-2-(methylamino)-5-((S)-2-methylpiperidin-1-yl)pentanoyl]-cyclosporin (peptide)
Second: 3-[D-Ala]-4-[(2S,3R)-3-methyl-2-(methylamino)-5-((S)-3-oxotetrahydro-1H-oxazolo[3,4-a]pyrazin-7(3H)-yl)pentanoyl]-cyclosporin (peptide)
The OATP1B13 IC50 of the first is 1.6-fold lower: 1.7 µM for the first, 2.8 µM for the second.

Compared with “3-[D-Ala]-4-[(2S,3R)-3-methyl-2-(methylamino)-5-(piperidin-1-yl)pentanoyl]-cyclosporin (peptide)”, “3-[D-Ala]-4-[(2S,3R)-3-methyl-2-(methylamino)-5-morpholinopentanoyl]-cyclosporin (peptide)” is 1.7-fold higher in OATP1B13 IC50: 2.3 µM for the first, 3.9 µM for the second.

Compared with “3-[D-Ala]-4-[(2S,3R)-3-methyl-2-(methylamino)-6-(4-methylpiperazin-1-yl)-6-oxohexanoyl]-cyclosporin (peptide)”, “3-[D-Ala]-4-[(2S,3R)-3-methyl-2-(methylamino)-6-((4-methylpiperazine-1-carbonyl)oxy)hexanoyl]-cyclosporin (peptide)” is 1.9-fold lower in OATP1B13 IC50: 5.4 µM for the first, 2.9 µM for the second.

Going from “3-[D-Ala]-4-[(2S,3R)-3-methyl-2-(methylamino)-6-(((1-methylpiperidin-4-yl)carbamoyl)oxy)hexanoyl]-cyclosporin (peptide)” to “3-[D-Ala]-4-[(2S,3R)-3-methyl-2-(methylamino)-6-morpholino-6-oxohexanoyl]-cyclosporin (peptide)”, the OATP1B13 IC50 falls from 7.8 µM to 4.8 µM (1.6-fold).

Going from “3-[D-Ala]-4-[(2S,3R)-3-methyl-4-(methyl(pyridin-3-ylmethyl)amino)-2-(methylamino)butanoyl]-cyclosporin (peptide)” to “3-[D-Ala]-4-[(2S,3R)-3-methyl-6-((methyl(1-methylpiperidin-4-yl)carbamoyl)oxy)-2-(methylamino)hexanoyl]-cyclosporin (peptide)”, the OATP1B13 IC50 rises from 1 µM to 3.7 µM (3.7-fold).

Going from “3-[D-Ala]-4-[(2S,3R)-4-(3,3-difluoropyrrolidin-1-yl)-3-methyl-2-(methylamino)butanoyl]-cyclosporin (peptide)” to “3-[D-Ala]-4-[(2S,3R)-4-(3-methoxyazetidin-1-yl)-3-methyl-2-(methylamino)butanoyl]-cyclosporin (peptide)”, the OATP1B13 IC50 rises from 1.4 µM to 4.2 µM (3-fold).

“3-[D-Ala]-4-[(2S,3R)-4-(4-(ethoxycarbonyl)piperazin-1-yl)-3-methyl-2-(methylamino)butanoyl]-cyclosporin (peptide)” and “3-[D-Ala]-4-[(2S,3R)-4-(4-acetylpiperazin-1-yl)-3-methyl-2-(methylamino)butanoyl]-cyclosporin (peptide)” are within 1.5-fold of each other in OATP1B13 IC50: 2.1 µM for the first, 2.3 µM for the second.

“3-[D-Ala]-4-[(2S,3R)-4-(4-cyanopiperidin-1-yl)-3-methyl-2-(methylamino)butanoyl]-cyclosporin (peptide)” and “3-[D-Ala]-4-[(2S,3R)-4-(8-oxa-3-azabicyclo[3.2.1]octan-3-yl)-3-methyl-2-(methylamino)butanoyl]-cyclosporin (peptide)” are within 1.5-fold of each other in OATP1B13 IC50: 1.9 µM for the first, 1.7 µM for the second.

“3-[D-Ala]-4-[(2S,3R)-4-((2-(dimethylamino)-2-oxoethyl)(methyl)amino)-3-methyl-2-(methylamino)butanoyl]-cyclosporin (peptide)” and “3-[D-Ala]-4-[(2S,3R)-4-((2-methoxyethyl)(methyl)amino)-3-methyl-2-(methylamino)butanoyl]-cyclosporin (peptide)” are within 1.5-fold of each other in OATP1B13 IC50: 2.7 µM for the first, 1.9 µM for the second.

“3-[D-Ala]-4-[(2S,3R)-4-((2S,5S)-2,5-dimethylmorpholino)-3-methyl-2-(methylamino)butanoyl]-cyclosporin (peptide)” and “3-[D-Ala]-4-[(2S,3R)-4-((4-ethylpiperazine-1-carbonyl)oxy)-3-methyl-2-(methylamino)butanoyl]-cyclosporin (peptide)” are within 1.5-fold of each other in OATP1B13 IC50: 2.6 µM for the first, 2.2 µM for the second.

First: 3-[D-Ala]-4-[(2S,3R)-4-cyano-3-methyl-2-(methylamino)butanoyl]-cyclosporin (peptide)
Second: 3-[D-Ala]-4-[(2S,3R)-5-(3-methoxyazetidin-1-yl)-3-methyl-2-(methylamino)pentanoyl]-cyclosporin (peptide)
The OATP1B13 IC50 of the first is 1.6-fold lower: 0.9 µM for the first, 1.4 µM for the second.

First: 3-[D-Ala]-4-[(2S,3R)-5-(4-(2-methoxyethyl)piperazin-1-yl)-3-methyl-2-(methylamino)pentanoyl]-cyclosporin (peptide)
Second: 3-[D-Ala]-4-[(2S,3R)-5-(4-cyanopiperidin-1-yl)-3-methyl-2-(methylamino)pentanoyl]-cyclosporin (peptide)
The OATP1B13 IC50 of the first is 3.8-fold higher: 9.1 µM for the first, 2.4 µM for the second.

“3-[D-Ala]-4-[(2S,3R)-5-(4-cyclobutylpiperazin-1-yl)-3-methyl-2-(methylamino)pentanoyl]-cyclosporin (peptide)” and “3-[D-Ala]-4-[(2S,3R)-6-(4-(2-methoxyethyl)piperazin-1-yl)-3-methyl-2-(methylamino)hexanoyl]-cyclosporin (peptide)” are within 1.5-fold of each other in OATP1B13 IC50: 2.1 µM for the first, 2.2 µM for the second.

Compared with “3-[D-Ala]-4-[(2S,3R)-6-(4-ethylpiperazin-1-yl)-3-methyl-2-(methylamino)hexanoyl]-cyclosporin (peptide)”, “3-[D-Ala]-4-[(2S,3R)-6-(4-methoxypiperidin-1-yl)-3-methyl-2-(methylamino)hexanoyl]-cyclosporin (peptide)” is 1.7-fold higher in OATP1B13 IC50: 2.6 µM for the first, 4.3 µM for the second.

“3-[D-Ala]-4-[(2S,3R)-6-(8-oxa-3-azabicyclo[3.2.1]octan-3-yl)-3-methyl-2-(methylamino)-6-oxohexanoyl]-cyclosporin (peptide)” and “3-[D-Ala]-4-[(2S,3R)-6-hydroxy-3,6-dimethyl-2-(methylamino)heptanoyl]-cyclosporin (peptide)” are within 1.5-fold of each other in OATP1B13 IC50: 1.9 µM for the first, 2.2 µM for the second.

Going from “3-[D-Ala]-4-[(2S,3S)-3-methyl-2-(methylamino)-4-(2-(4-methylpiperazin-1-yl)-2-oxoethoxy)butanoyl]-cyclosporin (peptide)” to “3-[D-Ala]-4-[(2S,3S)-3-methyl-2-(methylamino)-4-(2-((S)-3-methylmorpholino)ethoxy)butanoyl]-cyclosporin (peptide)”, the OATP1B13 IC50 falls from 9.4 µM to 4.8 µM (2-fold).

Compared with “3-[D-Ala]-4-[(2S,3S)-3-methyl-2-(methylamino)-4-(2-oxo-2-(piperazin-1-yl)ethoxy)butanoyl]-cyclosporin (peptide)”, “3-[D-Ala]-4-[(2S,3S)-3-methyl-2-(methylamino)-4-(((S)-tetrahydrofuran-3-yl)oxy)butanoyl]-cyclobsporin (peptide)” is 3.6-fold lower in OATP1B13 IC50: 6.9 µM for the first, 1.9 µM for the second.

Going from “3-[D-Ala]-4-[(2S,3S)-3-methyl-2-(methylamino)-4-((S)-3-oxotetrahydro-1H-oxazolo[3,4-a]pyrazin-7(3H)-yl)butanoyl]-cyclosporin (peptide)” to “3-[D-Ala]-4-[(2S,3S)-3-methyl-2-(methylamino)-4-((morpholine-4-carbonyl)oxy)butanoyl]-cyclosporin (peptide)”, the OATP1B13 IC50 rises from 1.4 µM to 2.3 µM (1.6-fold).

Compared with “3-[D-Ala]-4-[(2S,3S)-3-methyl-4-(2-(methyl(2,2,2-trifluoroethyl)amino)ethoxy)-2-(methylamino)butanoyl]-cyclosporin (peptide)”, “3-[D-Ala]-4-[(2S,3S)-4-(2-(4-cyclohexylpiperazin-1-yl)-2-oxoethoxy)-3-methyl-2-(methylamino)butanoyl]-cyclosporin (peptide)” is 1.8-fold higher in OATP1B13 IC50: 1.9 µM for the first, 3.5 µM for the second.
